B1: MFF (parent)
chain: YTEGISQRMRVPEKLKVAPPNADL

Variants of: B1
Test: protein stability index of a GFP-peptide fusion (GPS, HEK-293T) (PSI 1-6); higher = more stable
Conditions: c terminus: a fixed tail appended
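Further: lentivirally expressed fusions sorted by FACS into six bins by GFP to DsRed ratio, PSI derived from sequencing read proportions per bin multiplied by bin number.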

Variant	protein stability index
YTEGISQRMRVPEKLKAAPPNADL	2.82
YTEGISQRMRVPEKLKCAPPNADL	2.18
YTEGISQRMRVPEKLKDAPPNADL	3.18
YTEGISQRMRVPEKLKMAPPNADL	2.75
YTEGESQRMRVPEKLKVAPPNADL	4.78
YTEGDSQRMRVPEKLKVAPPNADL	4.55
YTEGWSQRMRVPEKLKVAPPNADL	2.75
YTEGMSQRMRVPEKLKVAPPNADL	3.4
YTEGFSQRMRVPEKLKVAPPNADL	2.13
YTEGTSQRMRVPEKLKVAPPNADL	3.9
YTEGVSQRMRVPEKLKVAPPNADL	3.63
YTEGISQRMRVPEKLKVQPPNADL	3.24
YTEGISQRMRVPEKLKVHPPNADL	3.88
YTEGISQRMRVPEKLKVWPPNADL	2.23
YTEGISQRMRVPEKLKVTPPNADL	3.03
YTEGISQRMRVPEKLKVIPPNADL	3.15
YTEGISQRMRVPEKLKVNPPNADL	2.78
YTEGISQRMRVPEKLKVMPPNADL	2.89
YTEGISQRMRVPEKLKVVPPNADL	2.72
YTEGISQRMAVPEKLKVAPPNADL	2.17
YTEGISQRMLVPEKLKVAPPNADL	3.06
YTEGISQRMMVPEKLKVAPPNADL	2.48
YTEGISQRMCVPEKLKVAPPNADL	2.74
YTEGISQRMYVPEKLKVAPPNADL	2.08

Variant	protein stability index
YTEGISQRMIVPEKLKVAPPNADL	2.97
YTEGISQRMPVPEKLKVAPPNADL	3.44
YTEGISQRMVVPEKLKVAPPNADL	2.49
YTEGISQRMEVPEKLKVAPPNADL	2.83
YTEGISQRMRYPEKLKVAPPNADL	2.6
YTEGISQRMRSPEKLKVAPPNADL	3.29
YTEGISQRMRTPEKLKVAPPNADL	3.24
YTEGISQRMRNPEKLKVAPPNADL	2.91
YTEGISQRMRGPEKLKVAPPNADL	2.9
YTEGISQRMRHPEKLKVAPPNADL	2.96
YTEGISQRMRVPEKLLVAPPNADL	2.62
YTEGISQRMRVPEKLMVAPPNADL	2.77
YTEGISQRMRVPEKLFVAPPNADL	2.8
YTEGISQRMRVPEKLHVAPPNADL	3.21
YTEGISQRMRVPEKLWVAPPNADL	2.49
YTEGISQRMRVPEKLNVAPPNADL	3.33
YTEGISQRMRVPEKLAVAPPNADL	2.68
YKEGISQRMRVPEKLKVAPPNADL	3.92
YIEGISQRMRVPEKLKVAPPNADL	1.65
YNEGISQRMRVPEKLKVAPPNADL	3.69
YPEGISQRMRVPEKLKVAPPNADL	3.48
YAEGISQRMRVPEKLKVAPPNADL	2.72
YLEGISQRMRVPEKLKVAPPNADL	2.13
YTEGISQCMRVPEKLKVAPPNADL	2.47

Variant	protein stability index
YTEGISQQMRVPEKLKVAPPNADL	2.79
YTEGISQTMRVPEKLKVAPPNADL	2.76
YTEGISQAMRVPEKLKVAPPNADL	2.82
YTEGISQPMRVPEKLKVAPPNADL	2.81
YTEGISQMMRVPEKLKVAPPNADL	2.16
YTEGISQKMRVPEKLKVAPPNADL	2.52
YTEGISQGMRVPEKLKVAPPNADL	2.47
YTEGISQWMRVPEKLKVAPPNADL	2.3
YTMGISQRMRVPEKLKVAPPNADL	2.48
YTYGISQRMRVPEKLKVAPPNADL	2.69
YTIGISQRMRVPEKLKVAPPNADL	2.42
YTTGISQRMRVPEKLKVAPPNADL	2.56
YTVGISQRMRVPEKLKVAPPNADL	2.44
YTLGISQRMRVPEKLKVAPPNADL	2.58
YTRGISQRMRVPEKLKVAPPNADL	3.03
YTAGISQRMRVPEKLKVAPPNADL	2.96
YTQGISQRMRVPEKLKVAPPNADL	3.01
YTEGISQRMRVPEKLKVAPPNADD	3.88
YTEGISQRMRVPEKLKVAPPNADM	2.91
YTEGISQRMRVPEKLKVAPPNADK	3
YTEGISQRMRVPEKLKVAPPNADY	2.6
YTEGISQRMRVPEKLKVAPPNADA	3
YTEGISQRMRVPEKLKVAPPNADV	2.61
YTEGISQRMRVPEKLKVAPPNADN	3.08

Variant	protein stability index
YTEGISQRMRVYEKLKVAPPNADL	2.58
YTEGISQRMRVFEKLKVAPPNADL	1.88
YTEGISQRMRVGEKLKVAPPNADL	2.46
YTEGISQRMRVEEKLKVAPPNADL	2.69
YTEGISQRMRVLEKLKVAPPNADL	2.42
YTEGISQRMRVKEKLKVAPPNADL	2.57
YTEGISQRMRVSEKLKVAPPNADL	2.53
YTEGISQRMRVPEKLKVAPPNQDL	2.81
YTEGISQRMRVPEKLKVAPPNFDL	2.83
YTEGISQRMRVPEKLKVAPPNYDL	2.56
YTEGISQRMRVPEKLKVAPPNRDL	2.77
YTEGISQRMRVPEKLKVAPPNKDL	3.28
YTEGISQRMRVPEKLKVAPPNMDL	2.68
YTEGISQRMRVPEKLKVAPPNHDL	2.69
YTEGISQRMRVPEKLKVAPPNCDL	2.62
YTEGISQRMRVPEKLKVAPPNEDL	3.33
MTEGISQRMRVPEKLKVAPPNADL	4.59
ETEGISQRMRVPEKLKVAPPNADL	4.55
CTEGISQRMRVPEKLKVAPPNADL	4.21
TTEGISQRMRVPEKLKVAPPNADL	4.31
HTEGISQRMRVPEKLKVAPPNADL	4.52
WTEGISQRMRVPEKLKVAPPNADL	4.21

— the supplement of paper PMC10567573
